Data published in patent US20180172683A1 (published 2018).
Ends that are not written are not given here. * marks the point of attachment. Ser‑Gly linker = flexible serine-glycine linker, six amino acids long; Biotin = O=C1N[C@H]2[C@H](CS[C@H]2CCCCC(=O)*)N1

B1: Peptide D1 (synthetic, biotin-labeled) (peptide)
peptide: MIAISTIYNYKKAADHYAMTKGSK(Biotin)-NH2
modifications: N-terminus assumed
SMILES: CC[C@H](C)[C@H](NC(=O)[C@H](C)NC(=O)[C@@H](NC(=O)[C@@H](N)CCSC)[C@@H](C)CC)C(=O)N[C@@H](CO)C(=O)N[C@H](C(=O)N[C@H](C(=O)N[C@@H](Cc1ccc(O)cc1)C(=O)N[C@@H](CC(N)=O)C(=O)N[C@@H](Cc1ccc(O)cc1)C(=O)N[C@@H](CCCCN)C(=O)N[C@@H](CCCCN)C(=O)N[C@@H](C)C(=O)N[C@@H](C)C(=O)N[C@@H](CC(=O)O)C(=O)N[C@@H](Cc1c[nH]cn1)C(=O)N[C@@H](Cc1ccc(O)cc1)C(=O)N[C@@H](C)C(=O)N[C@@H](CCSC)C(=O)N[C@H](C(=O)N[C@@H](CCCCN)C(=O)NCC(=O)N[C@@H](CO)C(=O)N[C@@H](CCCCNC(=O)CCCC[C@@H]1SC[C@@H]2NC(=O)N[C@@H]21)C(N)=O)[C@@H](C)O)[C@@H](C)CC)[C@@H](C)O
notes: Solid phase Fmoc synthesis; Also the capture ligand of the forward assays for peptide ligands; also called D1 Pep; D1 Peptide
B2: E1, radiolabeled in vitro translated peptide with C-terminal serine-glycine linker and HA tag (peptide)
peptide: MIETITIYNYKKAADHFSMSM-{Ser‑Gly linker-HA tag}
modifications: also: 35S-labeled methionine
notes: not shown: flexible serine-glycine linker, six amino acids long; HA tag
B3: Peptide E2 (synthetic, biotin-labeled) (peptide)
peptide: MIETITIYKYKKAADHFSMSMGSK(Biotin)-NH2
modifications: N-terminus assumed
SMILES: CC[C@H](C)[C@H](NC(=O)[C@@H](NC(=O)[C@@H](NC(=O)[C@@H](NC(=O)[C@H](CCC(=O)O)NC(=O)[C@@H](NC(=O)[C@@H](N)CCSC)[C@@H](C)CC)[C@@H](C)O)[C@@H](C)CC)[C@@H](C)O)C(=O)N[C@@H](Cc1ccc(O)cc1)C(=O)N[C@@H](CCCCN)C(=O)N[C@@H](Cc1ccc(O)cc1)C(=O)N[C@@H](CCCCN)C(=O)N[C@@H](CCCCN)C(=O)N[C@@H](C)C(=O)N[C@@H](C)C(=O)N[C@@H](CC(=O)O)C(=O)N[C@@H](Cc1c[nH]cn1)C(=O)N[C@@H](Cc1ccccc1)C(=O)N[C@@H](CO)C(=O)N[C@@H](CCSC)C(=O)N[C@@H](CO)C(=O)N[C@@H](CCSC)C(=O)NCC(=O)N[C@@H](CO)C(=O)N[C@@H](CCCCNC(=O)CCCC[C@@H]1SC[C@@H]2NC(=O)N[C@@H]21)C(N)=O
notes: Solid phase Fmoc synthesis; also called E2 Pep
B4: Peptide E1 (synthetic, biotin-labeled) (peptide)
peptide: MIETITIYNYKKAADHFSMSMGSK(Biotin)-NH2
modifications: N-terminus assumed
SMILES: CC[C@H](C)[C@H](NC(=O)[C@@H](NC(=O)[C@@H](NC(=O)[C@@H](NC(=O)[C@H](CCC(=O)O)NC(=O)[C@@H](NC(=O)[C@@H](N)CCSC)[C@@H](C)CC)[C@@H](C)O)[C@@H](C)CC)[C@@H](C)O)C(=O)N[C@@H](Cc1ccc(O)cc1)C(=O)N[C@@H](CC(N)=O)C(=O)N[C@@H](Cc1ccc(O)cc1)C(=O)N[C@@H](CCCCN)C(=O)N[C@@H](CCCCN)C(=O)N[C@@H](C)C(=O)N[C@@H](C)C(=O)N[C@@H](CC(=O)O)C(=O)N[C@@H](Cc1c[nH]cn1)C(=O)N[C@@H](Cc1ccccc1)C(=O)N[C@@H](CO)C(=O)N[C@@H](CCSC)C(=O)N[C@@H](CO)C(=O)N[C@@H](CCSC)C(=O)NCC(=O)N[C@@H](CO)C(=O)N[C@@H](CCCCNC(=O)CCCC[C@@H]1SC[C@@H]2NC(=O)N[C@@H]21)C(N)=O
notes: Solid phase Fmoc synthesis; also called E1 Pep
B5: E2, radiolabeled in vitro translated construct used for the off-rate of Table 3 (peptide, not shown: small tags and cut ends)
peptide: MIETITIYKYKKAADHFSMSMGSK
modifications: also: 35S-labeled methionine, C-terminal extension: Ser-Gly linker and HA tag, or mRNA fusion
B6: D1, radiolabeled in vitro translated peptide with C-terminal serine-glycine linker and HA tag (peptide)
peptide: MIAISTIYNYKKAADHYAMTK-{Ser‑Gly linker-HA tag}
modifications: also: 35S-labeled methionine
notes: as for B2
B7: B-cell lymphoma extra-large protein (Bcl-xL), first 209 amino acids with N-terminal avitag (other)
chain: AGGLNDIFEAQKIEWHEGGMSQSNRELVVDFLSYKLSQKGYSWSQFSDVEENRTEAPEGTESEMETPSAINGNPSWHLADSPAVNGATGHSSSLDAREVIPMAAVKQALREAGDEFELRYRRAFSDLTSQLHITPGTAYQSFEQVVNELFRDGVNWGRIVAFFSFGGALCVESVDKEMQVLVSRIAAWMATYLNDHLEPWIQENGGWDTFVELYGNNAAAESRKGQER
modifications: biotin on the avitag (BirA biotin ligase); a non-biotinylated form was used as the excess competitor in solution in the off-rate assays
notes: range 1-209; Expressed in E. coli BL21(DE3); Used in solution (forward assays) or immobilized through biotin on streptavidin plates or beads (reverse assay, off-rate and HTSK experiments); not shown: His tag implied (pET24a NdeI/XhoI, Ni-NTA purification, anti-HIS probe)

What was measured:
[1] = target: B7; experiment: equilibrium AMMP, monovalent model
Protocol: (§1) AMMP Assays. For the AMMP assays, 90 μL of each sample or standards was incubated with 30 μL of magnetic beads (12 μg of beads/mL) and fluorescein-labeled antibody (8 nM) in sample buffer for 1 hour. The experiment's run buffer was 1×PBS+1% (v/v) Tween-20+1% (v/v) heat-treated FBS (Invitrogen; FBS was heat treated for 15 minutes at 65° C. and filtered). BioScale Universal Detection Cartridges were used in performing all of the assays. The device was used per the manufacturer's instructions. The ligand of interest, capture ligand, target protein, and probe ligand used in example AMMP assays performed are highlighted in the table below.
(§2) A competing ligand of unknown Kd was incubated with the target and allowed to equilibrate. The target protein bound to the competing ligand is not anchored to the magnetic beads. Subsequent wash steps thereby […]. The Kd of interaction between the target protein and the competing ligand can then be determined by quantifying the amount of free target in solution.

[2] = target: B7; experiment: equilibrium ELISA and AMMP, monovalent model, Kd and [L]0 fit simultaneously
[3] = target: B7; experiment: equilibrium ELISA/AMMP (value of Table 1 given again)
[4] = target: B7; experiment: equilibrium ELISA, monovalent model
Protocol: (§3) After the capture ligand incubation, 100 μL of sample or standards were added in each well, and incubated for 1 hour at room temperature. Plates were washed, incubated with HRP-conjugated probe antibody (such as anti-HIS tag antibody) in sample buffer for 1 hour, washed, and incubated with TMB substrate (Thermo Scientific). Reactions were stopped after approximately 10 minutes with 2 M sulfuric acid, and the absorbance at 450 nm was measured via a plate reader (Molecular Devices). The ligand of interest, capture ligand, target protein, and probe ligand used in example ELISA assays performed are highlighted in the table below.
(§4) Enzymatic Kd Calculation Assay. The Kd values of ligands of interest were determined using a protocol modified from Friguet et al., Journal of immunological methods, 77, 305-319 (1985). The samples were prepared and analyzed by ELISA assay in a similar process as described above. The OD450 for the standards and their concentration values were fit to a four parameter logistic curve (standard curve). The concentration of the free Bcl-xL in solution (responsible for the signal) for each sample was calculated using the standard curve, and converted into percent of Bcl-xL bound by ligand in solution. For each ligand, the values for all the tested concentration of Bcl-xL and peptide in solution were fit simultaneously to the monovalent equilibrium model below to obtain the dissociation constant Kd (in which [C]EQ, [T]₀, [L]₀ represent the concentration of the target-ligand complex at equilibrium, the initial concentration of the target protein, and the initial concentration of the ligand, respectively).
(§5) The equilibrium assay is a modified version of the method described by Friguet et al., supra. The samples were prepared and analyzed by ELISA assay in a similar process as described above.

[5] = target: B7; experiment: binding (equilibrium ELISA) Kd
Protocol: as §3, with “ELISA Assays. […] Plates were washed 3× with wash buffer (1×PBS+0.1% (v/v) Tween-20) and blocked with 1×PBS+5% (w/v) BSA for two hours. […] After” for “After”
Enzymatic Kd Calculation Assay. The Kd values of ligands of interest were determined using a protocol modified from Friguet et al., Journal of immunological methods, 77, 305-319 (1985). The samples were prepared and analyzed by ELISA assay in a similar process as described above. The OD450 for the standards and their concentration values were fit to a four parameter logistic curve (standard curve). The concentration of the free Bcl-xL in solution (responsible for the signal) for each sample was calculated using the standard curve, and converted into percent of Bcl-xL bound by ligand in solution. […]

[6] = target: B7; experiment: calculated from the equilibrium Kd and the radiolabeled off-rate
Protocol: (§6) The Kd for the peptides is measured by the equilibrium ELISA/AAMP assays (Table 1). The off-rate for these peptides was obtained by measuring the dissociation rate for radiolabeled peptide-mRNA fusions bound to immobilized Bcl-xL. The on-rate was calculated based on the equilibrium Kd measurements and the radiolabeled off-rate.

[7] = target: B7; experiment: equilibrium ELISA and AMMP, monovalent model, known [L]0
[8] = target: B7; experiment: radiolabeled HA-tagged peptide off-rate from immobilized Bcl-xL
Protocol: (§7) The radiolabeled peptides were allowed to bind to 30 pmol immobilized Bcl-xL for 1 hour in sample buffer (1×PBS, 1% (w/v) BSA, 0.1% (v/v) Tween 20, 10 μM biotin). The beads were magnetically separated, and washed 5× with sample buffer. The beads were resuspended in 1 mL of sample buffer containing 3 μM non-biotinylated Bcl-xL (˜100× molar excess relative to immobilized biotinylated Bcl-xL). At various time points, 100 μL of slurry was removed and the beads were magnetically separated and washed. The percent remaining at each time point was determined by dividing the counts per minute (cpm) on beads by total cpm (beads+washes). The peptide off-rate was determined by an exponential fit of the Percent counts on beads vs. Time (s).
The peptide ligands were made using a C-terminal HA tag, and affinity purified.

[9] = target: B7; experiment: dissociation of radiolabeled construct from immobilized Bcl-xL with excess Bcl-xL in solution
Protocol: as §7, §6

[10] = target: T1, Bim peptide (synthetic 26-residue fragment of Bim, biotin-labeled) (C-terminal amide; biotin on the side chain of the C-terminal Lys); experiment: equilibrium AMMP, monovalent model
Protocol: as §1, §2

[11] = target: T1, Bim peptide (synthetic 26-residue …); experiment: equilibrium ELISA and AMMP, monovalent model, Kd and [L]0 fit simultaneously
[12] = target: T1, Bim peptide (synthetic 26-residue …); experiment: equilibrium ELISA, monovalent model
Protocol: as §3, §4, §5

T1 sequence (peptide, as listed by the source): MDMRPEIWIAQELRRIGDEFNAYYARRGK

Binder	Kd [1] [nM]	Kd [2] [nM]	Kd [3] [nM]	Kd [4] [nM]	kon [6] [M⁻¹ s⁻¹]	Kd [7] [nM]	koff [9] [s⁻¹]	further results
B1	0.012	0.014	0.0085	0.007	240000	0.0085		Kd [5]: 0.009 nM
B2							1.2e-05	koff [8]: 7.4e-06 s⁻¹
B3	0.315	0.24	0.3	0.29	53000	0.3		
B4	0.045	0.027	0.039	0.034	310000	0.039		Kd [5]: 0.039 nM
B5							1.6e-05	
B6							2e-06	koff [8]: 2e-06 s⁻¹
B7								Kd [10]: 0.077 nM; Kd [11]: 0.15 nM; Kd [12]: 0.17 nM
